Experimental data: patent US10379127B2, “Marker of cell death” (priority 2013, dated 2019)

Key:
Jurkat cells [1] = experiment: Relative proportions of live, apoptotic and dead Jurkat cells challenged with staurosporine (Sytox Red and MAb2C4:AF568 staining); assay type: cell-based; conditions: 2×10^−7M, 5×10^−7M and 10×10^−7M for 40 hours, FIG. 10
Procedure: Analysis of relative proportions of live, apoptotic and dead Jurkat cells challenged with 2×10^−7M, 5×10^−7M and 10×10^−7M staurosporine for 40 hours.

Jurkat cells [2] = experiment: FACS analysis of Jurkat cells induced to undergo Programmed Cell Death, live-stained with antibody:fluorophore conjugate; assay type: cell-based
Procedure: FIG. 6. Scatter plots from FACS analysis of Jurkat cells treated with the cytotoxin staurosporine (5×10^-7M) for 40 hours to induce Programmed Cell Death including apoptosis and finally cell death (necrosis). The populations of live, apoptotic and dead cells were live-stained with 1 μg/mL MAb2C4:AF568 and/or annexin V:AF488 and the fluorescence intensity (FI) of each shown on the ordinate and abscissa respectively. A: Cell populations stained with MAb2C4:AF568 alone; B: Cell populations stained with MAb2C4:AF568 plus annexin V:AF488; C: Cell populations stained with annexin V:AF488 alone; D: Cell populations stained with MAbFLAG:AF568 plus annexin V:AF488; E: No additions.
FIG. 7. Histograms from FACS analysis of Jurkat cells induced to undergo Programmed Cell Death [PCD] (as for FIG. 6). Shown are overlaid curves representative of live, apoptotic and necrotic (dead) cell populations [A, B & C]. In D these curves are aligned for ease of comparison.
FIG. 8. Overlaid scatter plots showing increasing FI of apoptotic and dead Jurkat populations stained with MAb2C4:AF568 compared to the MAbFLAG:AF568 isotype control.
FIG. 9. Scatter plots showing FI with MAb2C4:AF568 (abscissa) and/or Sytox Red (ordinate). A: Sytox Red alone; B: Increased FI of apoptotic, transition and dead (necrotic) cell populations stained with MAb2C4:AF568; C: Overlaid dot plots of A & B.
MAb2C4 is a mouse anti-human CTR antibody (IgG1) that binds an extracellular epitope and has been conjugated with AlexaFluor 568 (MAb2C4:AF568). […] MAb2C4:AF568 was validated using cell lines expressing human calcitonin receptor (hCTR).
MAbFLAG:AF568 is an IgG1 isotype control. This conjugate was validated using a stable transfectant HEK293 cell line that expresses the PA receptor tagged with a FLAG epitope sequence. The FLAG epitope is positioned on the cell surface. Annexin V:AF488 binds the plasma membrane of dying (apoptotic) and dead (necrotic) cells.

Molecule | proportion of live cells (Jurkat cells [1]) | proportion of apoptotic and dead cell populations (Jurkat cells [1]; Sytox Red and MAb2C4:AF568 staining) | binding to apoptotic and dead cells (Jurkat cells [2]; Example 5 summary statement) | FI (red channel) of apoptotic and dead cell populations, histograms (Jurkat cells [2]; Jurkat cells induced to undergo PCD as for FIG. 6, compared to MAbFLAG:AF568 isotype control, FIG. 7) | fluorescence intensity (FI), scatter plots (Jurkat cells [2]; Jurkat cells, staurosporine 5×10^-7M for 40 hours, live-stained 1 μg/mL, with or without annexin V:AF488, FIG. 6) | FI of apoptotic and dead Jurkat populations, overlaid scatter plots (Jurkat cells [2]; compared to MAbFLAG:AF568 isotype control, FIG. 8) | FI of apoptotic, transition and dead (necrotic) cell populations (Jurkat cells [2]; scatter plots with Sytox Red on the ordinate, FIG. 9)
CN[C@@H]1C[C@H]2O[C@@](C)([C@@H]1OC)n1c3ccccc3c3c4c(c5c6ccccc6n2c5c31)C(=O)NC4 [staurosporine] | decreases with increasing concentrations | increases | – | – | – | – | –
MAb2C4:AF568: mouse anti-human CTR antibody (IgG1) that binds an extracellular epitope, conjugated with AlexaFluor 568 (conjugate) VH: QVHLQQSGAELARPGASVRLSCEASGYTFTKYWMQWIKQRPGQGLEWIGAIYPGDGDSRYTPKFKGKATLTADKSSGTAYIQLSSLASEDSAVYYCARGDGTYWGQGTLVTVSA VL: DIQMTQSPASLSASVGETVTITCRASENIYSYLAWYQQKQGKSPQLLVYKAKTLEEGVPSRFSGSGSGTQFSLKINSLQPEDFGSYYCQHHYGTPRTFGGGTKLEIK | – | – | binds apoptotic cells and is accumulated into dead cells | increase in FI | increased FI | increasing FI | Increased FI
